Data taken from the MegaScale stability set (Tsuboyama et al. 2023).

B1: EEHEE_rd4_0469 (parent)
chain: ITIHVNGVTYHFDNPEEAEKFAQKMAKTYQLKMEIHNGEFHME

Variants of: B1
Assay: folding stability dG (cDNA display proteolysis); higher = more stable
Settings: PBS, room temperature

Folding stability dG [kcal/mol], by site and new letter:
K20: C 2.01; P 0.383; H 1.15; D 1.03; A 1.21; I 1.18; Y 1.09; W 1.02; R 1.17; F 1.1; V 1.17; T 1.19; M 1.15; L 1.23; E 1.11; G 0.79; Q 1.17; S 1.15; N 1.02
P15: W 1.53; V 1.21; I 1.27; Y 1.36; M 1.5; T 1.14; L 1.35; N 0.994; Q 1.03; S 1.1; R 1.34; K 1.17
A18: D -0.444; F 1; P -0.237; N -0.125; W 0.81; M 0.753; R 0.63; T 0.325; G 1.03; H 0.114; L 0.747; I 0.525; Q 0.282; E 0.011; Y 0.556; C 1.56; V 0.798; S 0.425; K 0.431
A22: Y 1.01; L 0.879; I 1.46; E 0.335; C 1.76; V 1.4; G 0.3; R 1.06; W 0.941; S 0.704; D -0.261; N 0.367; M 1.19; Q 0.662; H 0.587; T 0.747; F 0.747; K 0.843
K24: I 1.41; G 0.646; A 1.11; F 1.99; E 1.39; D 1.09; H 1.51
E17: Y 0.867; T 1.07; L 1.19; H 0.948; R 1.07; N 0.912; V 1.02; Q 1.03; D 1.06; A 1.15; C 1.81; K 1.14; M 1.07; F 0.96; S 1.15; W 1.01; I 1.09; P 0.444; G 0.714
F21: L 0.173; N -0.383; W 1.2; T -0.122; V 0.092; C 1.38; Y 0.564; Q -0.188; G -0.582; S -0.647; K -0.758; A 0.133; M 0.206; I 0.089; R -0.383; E -0.052; H 0.061; D -0.653
E16: P 0.698; L 1.19; W 1.16; S 1.12; I 1.18; T 1.09; M 1.15; A 1.12; K 1.18; R 1.21; V 1.18; H 1.14; Y 1.19; F 1.2; C 1.77; N 1.03; Q 1.1; D 1.25; G 1.02
Q23: F 1.19; S 1.05; H 0.988; K 1.07; L 1.25; Y 1.28; V 1.26; E 1.14; C 2.52; W 1.36; R 1.35; D 0.989; I 1.27; M 1.29; G 0.566; A 1.24; T 1.19; N 0.986
E19: A 1.35; D 1.07; S 1.16; N 1.32; F 1.63; L 1.61; H 1.38; W 1.82; K 1.27; Y 1.6; M 1.61; V 1.47; G 1.03; Q 1.26; P -0.375; I 1.5; T 1.3; R 1.41
